Legend:
[1] = target: HLA-A*01:01; assay: IEDB peptide-MHC binding, purified MHC/direct/fluorescence; filed as Kd, often an IC50 or EC50 that approximates it; ≥ and ≤ were set here for values at or beyond the usual limits of such assays
[2] = target: HLA-A*02:01; assay: as above
[3] = target: HLA-A*03:01; assay: as above
[4] = target: HLA-A*11:01; assay: as above
[5] = target: HLA-A*24:03; assay: as above
[6] = target: HLA-A*26:01; assay: as above
[7] = target: HLA-A*30:01; assay: as above
[8] = target: HLA-A*69:01; assay: as above
[9] = target: HLA-B*07:02; assay: as above
[10] = target: HLA-B*08:01; assay: as above
[11] = target: HLA-B*15:01; assay: as above
[12] = target: HLA-B*40:01; assay: as above
[13] = target: HLA-B*58:01; assay: as above
[14] = target: HLA-A*02:01; assay: IEDB peptide-MHC binding, purified MHC/competitive/fluorescence; filed as Kd, often an IC50 or EC50 that approximates it; ≥ and ≤ were set here for values at or beyond the usual limits of such assays
[15] = target: HLA-A*02:03; assay: as above
[16] = target: HLA-A*02:06; assay: as above
[17] = target: HLA-A*02:11; assay: as above
[18] = target: HLA-A*02:12; assay: as above
[19] = target: HLA-A*02:19; assay: as above
[20] = target: HLA-A*69:01; assay: as above
[21] = target: HLA-A*31:01; assay: IEDB peptide-MHC binding, purified MHC/direct/fluorescence; filed as Kd, often an IC50 or EC50 that approximates it; ≥ and ≤ were set here for values at or beyond the usual limits of such assays
[22] = target: HLA-B*27:05; assay: as above
[23] = target: HLA-A*68:02; assay: as above; details: source organism: Escherichia coli O157:H7
[24] = target: HLA-B*15:17; assay: as above; details: source organism: Escherichia coli O157:H7
[25] = target: HLA-B*18:01; assay: as above; details: source organism: Escherichia coli O157:H7
[26] = target: HLA-B*46:01; assay: as above; details: source organism: Escherichia coli O157:H7
[27] = target: HLA-B*48:01; assay: as above; details: source organism: Escherichia coli O157:H7
[28] = target: HLA-B*57:01; assay: as above; details: source organism: Escherichia coli O157:H7
[29] = target: HLA-A*02:16; assay: IEDB peptide-MHC binding, purified MHC/competitive/fluorescence; filed as Kd, often an IC50 or EC50 that approximates it; ≥ and ≤ were set here for values at or beyond the usual limits of such assays; details: source organism: Vibrio cholerae O395
[30] = target: HLA-A*26:01; assay: as above; details: source organism: Vibrio cholerae O395
[31] = target: HLA-A*29:02; assay: as above; details: source organism: Vibrio cholerae O395
[32] = target: HLA-A*68:02; assay: as above; details: source organism: Vibrio cholerae O395
[33] = target: HLA-B*18:01; assay: as above; details: source organism: Vibrio cholerae O395
[34] = target: HLA-B*39:01; assay: as above; details: source organism: Vibrio cholerae O395
[35] = target: HLA-B*46:01; assay: as above; details: source organism: Vibrio cholerae O395
[36] = target: HLA-B*44:02; assay: IEDB peptide-MHC binding, purified MHC/direct/fluorescence; filed as Kd, often an IC50 or EC50 that approximates it; ≥ and ≤ were set here for values at or beyond the usual limits of such assays; details: source organism: Rickettsia prowazekii
[37] = source organism: Vibrio vulnificus YJ016
[38] = source organism: Vibrio vulnificus
[39] = source organism: Human immunodeficiency virus 1
[40] = source organism: Pasteurella multocida
[41] = source organism: Escherichia coli O157:H7
[42] = source organism: Vibrio cholerae O395
[43] = source organism: Escherichia coli 536
[44] = source organism: Escherichia coli O6
[45] = source organism: Yersinia pestis Nepal516
[46] = source organism: Rickettsia prowazekii

DAYGFHNYK
Kd [1, 37]: ≥ 20 µM
Kd [2, 37]: ≥ 20 µM
Kd [3, 38]: 0.216 µM
Kd [4, 38]: 0.13 µM
Kd [5, 37]: ≥ 20 µM
Kd [6, 37]: ≥ 20 µM
Kd [7, 38]: 1.11 µM
Kd [8, 37]: ≥ 20 µM
Kd [9, 37]: ≥ 20 µM
Kd [10, 37]: ≥ 20 µM
Kd [11, 37]: ≥ 20 µM
Kd [12, 37]: ≥ 20 µM
Kd [13, 37]: ≥ 20 µM

NLGQHIYET
Kd [14, 39]: 9 µM
Kd [15, 39]: 0.116 µM
Kd [16, 39]: 0.11 µM
Kd [17, 39]: 0.0335 µM
Kd [18, 39]: 0.323 µM
Kd [19, 39]: 0.146 µM
Kd [20, 39]: ≥ 20 µM

NNKSRLVAF
Kd [1, 40]: ≥ 20 µM
Kd [2, 40]: ≥ 20 µM
Kd [3, 40]: ≥ 20 µM
Kd [4, 40]: ≥ 20 µM
Kd [5, 40]: ≥ 20 µM
Kd [6, 40]: ≥ 20 µM
Kd [7, 40]: 15.7 µM
Kd [21, 40]: ≥ 20 µM
Kd [8, 40]: ≥ 20 µM
Kd [10, 40]: 0.161 µM
Kd [11, 40]: ≥ 20 µM
Kd [22, 40]: ≥ 20 µM
Kd [12, 40]: ≥ 20 µM
Kd [13, 40]: ≥ 20 µM

RGRGVAIHR
Kd [1, 41]: ≥ 20 µM
Kd [2, 41]: ≥ 20 µM
Kd [3, 41]: 0.487 µM
Kd [4, 41]: ≥ 20 µM
Kd [21, 41]: 0.0066 µM
Kd [23]: ≥ 20 µM
Kd [9, 41]: ≥ 20 µM
Kd [11, 41]: ≥ 20 µM
Kd [24]: ≥ 20 µM
Kd [25]: ≥ 20 µM
Kd [22, 41]: ≥ 20 µM
Kd [12, 41]: ≥ 20 µM
Kd [26]: ≥ 20 µM
Kd [27]: ≥ 20 µM
Kd [28]: ≥ 20 µM
Kd [13, 41]: ≥ 20 µM
Kd ([16]; source organism: Shigella dysenteriae 1012): 0.569 µM

RVHFHRFMY
Kd [14, 42]: ≥ 20 µM
Kd [15, 42]: ≥ 20 µM
Kd [17, 42]: ≥ 20 µM
Kd [18, 42]: ≥ 20 µM
Kd [29]: ≥ 20 µM
Kd [19, 42]: ≥ 20 µM
Kd [30]: ≥ 20 µM
Kd [31]: 0.0042 µM
Kd [32]: ≥ 20 µM
Kd [20, 42]: ≥ 20 µM
Kd [33]: ≥ 20 µM
Kd [34]: ≥ 20 µM
Kd [35]: ≥ 20 µM

RYICPVQQI
Kd [1, 43]: ≥ 20 µM
Kd [2, 43]: ≥ 20 µM
Kd [3, 43]: ≥ 20 µM
Kd [5, 44]: 0.00253 µM
Kd [6, 43]: ≥ 20 µM
Kd [7, 44]: 4.19 µM
Kd [8, 43]: ≥ 20 µM
Kd [9, 43]: ≥ 20 µM
Kd [10, 43]: ≥ 20 µM
Kd [11, 43]: ≥ 20 µM
Kd [22, 43]: ≥ 20 µM
Kd [12, 43]: ≥ 20 µM
Kd [13, 44]: 9.09 µM

SLTPSPLDL
Kd [14, 45]: 0.21 µM
Kd [16, 45]: 1.39 µM

VVNYDNSTK
Kd [1, 46]: ≥ 20 µM
Kd [2, 46]: ≥ 20 µM
Kd [3, 46]: 0.445 µM
Kd [4, 46]: 0.0451 µM
Kd [5, 46]: ≥ 20 µM
Kd [6, 46]: ≥ 20 µM
Kd [7, 46]: 1.74 µM
Kd [21, 46]: 5.51 µM
Kd [8, 46]: ≥ 20 µM
Kd [9, 46]: ≥ 20 µM
Kd [10, 46]: ≥ 20 µM
Kd [11, 46]: ≥ 20 µM
Kd [22, 46]: ≥ 20 µM
Kd [12, 46]: ≥ 20 µM
Kd [36]: ≥ 20 µM
Kd [13, 46]: ≥ 20 µM
